Measured values from PMC2714593, “Insights into the role of Val45 and Gln182 of Escherichia coli MutY in DNA substrate binding and specificity”.

Target: T1, MutY (EcMutY) wild type (Escherichia coli, UniProt P17802 1-350)
T1 sequence: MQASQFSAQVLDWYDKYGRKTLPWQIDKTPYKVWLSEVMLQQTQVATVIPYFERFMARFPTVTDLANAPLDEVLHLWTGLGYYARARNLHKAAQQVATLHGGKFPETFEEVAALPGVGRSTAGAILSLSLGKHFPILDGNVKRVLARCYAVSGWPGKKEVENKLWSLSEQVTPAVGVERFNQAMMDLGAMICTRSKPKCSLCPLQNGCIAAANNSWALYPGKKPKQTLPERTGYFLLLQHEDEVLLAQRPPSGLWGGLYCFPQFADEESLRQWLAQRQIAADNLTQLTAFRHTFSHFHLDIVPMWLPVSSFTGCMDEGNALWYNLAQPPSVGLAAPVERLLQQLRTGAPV
Experiment: EMSA; 20 mM Tris-HCl pH 7.6, 80 mM NaCl, 1 mM DTT, 1 mM EDTA, 2.9% glycerol, 20 ng poly dI/dC per 20 ul, 0.09 nM labeled DNA, 30 min at 30 C; 4% PAGE in TBE
Settings: protein: recombinant; label: 5'-32P on X strand; blunt; T/G mismatch at strand 1 position 22

B1: T/G 44-mer (dsDNA)
DNA 1: AATTGGGCTCCTCGAGGAATTTGCCTTCTGCAGGCATGCCCCGG
DNA 2: CCGGGGCATGCCTGCAGAAGGCGAATTCCTCGAGGAGCCCAATT
B1 showed a Kd of 14 ± 1 nM.
